Measurements reported in patent publication US20050089937A1 (H LUNDBECK A S, published 2005).
Non-standard residues stand in square brackets, D forms with d. No end group written: not given here. *: point of attachment. NMeF = CN[C@@H](Cc1ccccc1)C(=O)O; 125I = [125I]*

What was measured:
[1] = target: rat spinal cord membrane receptor; assay: competition with [125I]D-Tyr-NPFF, rat spinal cord membranes
[2] = target: rat neuropeptide FF receptor (NPFF1) (rat) (UniProt Q9EP86); assay: competition with [125I]D-Tyr-NPFF, membranes of COS-7 cells with rat NPFF1
[3] = target: T1, rat neuropeptide FF receptor (NPFF1) (rat, UniProt Q9EP86 1-432); assay: as above
From the text: (§1) Cos-7 cells transiently expressing the gene encoding the novel rat NPFF1 receptor were used for pharmacological evaluation.

[4] = target: T2, rat neuropeptide FF receptor (NPFF1) (rat), Q9EP86; assay: as above
T2 chain: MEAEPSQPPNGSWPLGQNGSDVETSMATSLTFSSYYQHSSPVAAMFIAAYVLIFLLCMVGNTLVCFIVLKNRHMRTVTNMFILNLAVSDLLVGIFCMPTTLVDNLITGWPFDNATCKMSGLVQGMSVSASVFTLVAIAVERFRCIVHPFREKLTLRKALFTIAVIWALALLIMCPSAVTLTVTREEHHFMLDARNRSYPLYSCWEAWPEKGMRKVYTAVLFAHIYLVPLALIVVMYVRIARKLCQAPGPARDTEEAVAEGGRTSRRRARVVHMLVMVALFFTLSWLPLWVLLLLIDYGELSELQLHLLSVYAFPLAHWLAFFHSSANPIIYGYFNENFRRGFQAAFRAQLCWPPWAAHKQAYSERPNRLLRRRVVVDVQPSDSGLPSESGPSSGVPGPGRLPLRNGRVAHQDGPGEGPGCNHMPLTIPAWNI

[5] = target: T3, human neuropeptide FF receptor (NPFF1) (human, UniProt Q9GZQ6 1-430); assay: cell-based or functional assay
[6] = target: T4, human NPFF2b (hNPFF2) receptor (human, UniProt Q9Y5X5 103-522); assay: cell-based or functional assay
[7] = target: T5, rat neuropeptide FF receptor (NPFF2) (rat, UniProt Q9EQD2 1-417); assay: competition with [125I]D-Tyr-NPFF; rat NPFF2 against rat NPFF1
T5 construct: Full-length cloned receptor; Also the native receptor in rat brain sections (autoradiography); also called rat NPFF2
From the text: (§2) Additional pharmacological evaluation was done using 293 human embryonic kidney cells (HEK-293 cells) transiently expressing the genes encoding the human NPFF1, NPFF2, and rat NPFF1 receptors, as well as Cos-7 cells expressing the rat NPFF2 receptors.

[8] = target: T4, human NPFF2b (hNPFF2) receptor; assay: competition with [125I]D-Tyr-NPFF; human NPFF2 against human NPFF1
From the text: as §2

[9] = target: T1, rat neuropeptide FF receptor (NPFF1); assay: competition with [125I]D-Tyr-NPFF, HEK-293 cells with the cloned receptor
From the text: as §2

[10] = target: T3, human neuropeptide FF receptor (NPFF1); assay: as above
From the text: as §2

[11] = target: T4, human NPFF2b (hNPFF2) receptor; assay: as above
From the text: as §2

[12] = target: T5, rat neuropeptide FF receptor (NPFF2); assay: competition with [125I]D-Tyr-NPFF, cloned receptor (head: HEK-293; text: Cos-7)
From the text: as §2

[13] = target: T5, rat neuropeptide FF receptor (NPFF2); assay: radioligand saturation binding, Cos-7 cells expressing rat NPFF2
From the text: as §2

[14] = target: T5, rat neuropeptide FF receptor (NPFF2); assay: radioligand binding to cloned rat NPFF2, as told in the discussion
[15] = target: T1, rat neuropeptide FF receptor (NPFF1); assay: radioligand saturation binding, transiently transfected HEK-293 cells
[16] = target: T3, human neuropeptide FF receptor (NPFF1); assay: as above
[17] = target: T4, human NPFF2b (hNPFF2) receptor; assay: as above
[18] = target: T1, rat neuropeptide FF receptor (NPFF1); assay: radioligand saturation binding, membranes of Cos-7 cells transiently expressing rat NPFF1
From the text: as §1

[19] = target: T1, rat neuropeptide FF receptor (NPFF1); assay: cell-based or functional assay
[20] = target: T1, rat neuropeptide FF receptor (NPFF1); assay: cell-based or functional assay; remark: listed apart in the source
[21] = target: T5, rat neuropeptide FF receptor (NPFF2); assay: competition binding, HEK-293 cells with the cloned receptor

T4 sequence (Q9Y5X5 103-522): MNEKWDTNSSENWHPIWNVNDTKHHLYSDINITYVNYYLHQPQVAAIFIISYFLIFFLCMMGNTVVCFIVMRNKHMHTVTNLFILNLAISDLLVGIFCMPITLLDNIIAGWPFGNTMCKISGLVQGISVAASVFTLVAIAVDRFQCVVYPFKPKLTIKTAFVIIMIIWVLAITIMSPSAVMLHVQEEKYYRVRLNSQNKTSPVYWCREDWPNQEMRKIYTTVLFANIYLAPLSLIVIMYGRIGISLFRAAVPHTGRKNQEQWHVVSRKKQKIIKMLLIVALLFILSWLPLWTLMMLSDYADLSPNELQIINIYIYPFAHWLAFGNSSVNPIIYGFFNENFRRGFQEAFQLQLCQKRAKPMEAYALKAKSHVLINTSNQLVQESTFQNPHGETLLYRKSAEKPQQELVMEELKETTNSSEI
T3 sequence (Q9GZQ6 whole entry): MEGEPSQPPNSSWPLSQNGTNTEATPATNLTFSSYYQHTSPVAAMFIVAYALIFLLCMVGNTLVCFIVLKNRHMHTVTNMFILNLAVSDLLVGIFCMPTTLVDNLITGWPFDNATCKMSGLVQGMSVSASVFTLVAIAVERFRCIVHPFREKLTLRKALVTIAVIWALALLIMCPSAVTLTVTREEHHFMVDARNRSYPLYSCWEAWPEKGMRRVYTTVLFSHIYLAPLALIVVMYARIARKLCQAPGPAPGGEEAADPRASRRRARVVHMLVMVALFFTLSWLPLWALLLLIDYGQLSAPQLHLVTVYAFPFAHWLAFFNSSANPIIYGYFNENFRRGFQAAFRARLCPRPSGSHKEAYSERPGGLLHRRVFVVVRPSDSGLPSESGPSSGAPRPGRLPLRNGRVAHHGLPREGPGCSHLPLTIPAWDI
T5 sequence (Q9EQD2 whole entry): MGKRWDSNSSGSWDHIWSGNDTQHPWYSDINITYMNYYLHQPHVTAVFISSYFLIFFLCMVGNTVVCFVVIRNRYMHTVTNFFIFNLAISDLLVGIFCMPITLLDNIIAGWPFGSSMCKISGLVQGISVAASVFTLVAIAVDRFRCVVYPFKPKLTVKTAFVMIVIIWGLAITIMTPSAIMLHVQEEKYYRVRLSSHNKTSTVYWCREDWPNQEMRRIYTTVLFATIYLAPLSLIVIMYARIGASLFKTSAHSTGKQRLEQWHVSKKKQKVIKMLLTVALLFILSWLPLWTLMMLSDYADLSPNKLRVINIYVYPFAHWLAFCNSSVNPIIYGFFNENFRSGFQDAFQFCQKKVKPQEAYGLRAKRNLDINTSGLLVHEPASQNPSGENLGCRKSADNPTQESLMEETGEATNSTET

Neuropeptide FF (NPFF) showed a pKi [1] of 9.05.

(2D)Y8Fa (peptide) was tested, and the pKi [1] was 9.21 and the pKi [2] was 8.33.

Work on CGRP (peptide) yielded a pKi [1] of 5 and a pKi [3] of 5.

Work on (3D)Y8Fa (peptide) yielded a pKi [1] of 9.12 and a pKi [2] of 8.62.

Molecule desamino-nor-Y8Ra (peptide) has a pKi [1] of 7.51 and a pKi [3] of 7.27.

“Dynorphin A1-13 (from UniProt P01213 207-219) (peptide)” showed a pKi [1] of 5.7.

(2DME)Y8Fa (peptide) showed a pKi [1] of 9.57 and a pKi [2] of 9.2.

Neuropeptide F showed a pKi [1] of 8.1 and a pKi [3] of 6.11.

For YPLG (modifications not checked) [Tyr-MIF-1], the pKi [1] was 5 and the pKi [4] was 5.

Work on MPRVRSLFQEQEEPEPGMEEAGEMEQKQLQ (peptide, UniProt Q13519 98-127, looked up, species assumed, Nocistatin) [nocistatin] yielded a pKi [1] of 5 and a pKi [3] of 5.

YLFQPQRF-NH2 (also called Y8Famide; Y-8-F-amide) [Y8Fa] showed a pKi [1] of 9.19 and a pKi [3] of 8.38.

APSEPHHPGDQATQDQLAQYYSDLYQYITFVTRPRF (not fully specified; ends and bridges not checked, also called fPP) [Frog pancreatic polypeptide (frog PP) (Rana Temporaria)] was tested, and the “% of NPPF Response, intracellular calcium mobilization” value [5] was 0 % of NPPF Response, the “pEC50, intracellular calcium mobilization” value [5] was under 5 and the “% of NPPF Response, intracellular calcium mobilization” value [6] was 78 % of NPPF Response. The “pEC50, intracellular calcium mobilization” value [6] was 6.7, the pKi [1] was 9.12 and the “fold greater affinity than for the NPFF1 receptor” value [7] was 31 fold. For the same molecule, the “fold greater affinity than for the NPFF1 receptor” value [8] was 77 fold, the pKi [9] was 5.4 and the pKi [10] was 5.9. For the same molecule, the pKi [11] was 7.4, the pKi [3] was 5.5 and the pKi [12] was 7.3.

[dY](125I)L[NMeF]QPQRF-NH2 [[^125I][D-Tyr^1-(NMe)Phe^3]NPFF] gave a Kd [13] of 0.17 nM, a Kd [14] of 0.22 nM and a Kd [15] of 0.65 nM. It also gave a Kd [16] of 0.46 nM, a Kd [17] of 0.17 nM and a Kd [18] of 0.335 nM.

B1: Neuropeptide FF (NPFF) (peptide)
peptide: FLFQPQRF-NH2
notes: bought from Bachem; also called F-8-Fa; F8Famide
In the case of B1, the “EC50, extracellular acidification rate (microphysiometry), CHO cells with NPFF1 alone” value [19] is reported as 19.3 nM, the “EC50, extracellular acidification rate (microphysiometry), CHO cells with NPFF1 and the Gz/Gq chimera” value [19] is reported as 27.7 nM and the “EC50, total inositol phosphate release, Cos-7 cells with NPFF1” value [19] is reported as 23 nM. For the same molecule, the “EC50, functional activity in COS-7 cells” value [20] was 9.3 nM and the pKi [21] was 8.2.

In the case of FMRF-NH2 [FMRF amide], the pKi [1] is reported as 8.49, the pKi [9] is reported as 8.7 and the pKi [10] is reported as 9.1. It also gave a pKi [11] of 8.4, a pKi [3] of 8.48 and a pKi [12] of 8.

FTRF (ends and bridges not checked) gave a pKi [1] of 8.16 and a pKi [3] of 7.87.

B2: PQRF-amide (peptide)
peptide: PQRF-NH2
notes: C-terminal tetrapeptide of NPFF; also called PGRF-amide [sic]
B2 was tested, and the “% of NPPF Response, intracellular calcium mobilization” value [5] was 93 % of NPPF Response, the “pEC50, intracellular calcium mobilization” value [5] was 6.7 and the “% of NPPF Response, intracellular calcium mobilization” value [6] was 94 % of NPPF Response. The “pEC50, intracellular calcium mobilization” value [6] was 7, the pKi [9] was 7.6 and the pKi [10] was 7.4. The pKi [11] was 7.6, the pKi [3] was 8.18 and the pKi [12] was 7.6.

Work on PMRF-NH2 [PMRFa] yielded a pKi [1] of 9.37 and a pKi [3] of 8.55.

FFRF (ends and bridges not checked) showed a pKi [1] of 8.98 and a pKi [3] of 8.

With PDVDHVFLRF-NH2 (also called SchistFLRF) [Schisto(FLRFNH2)] the pKi [1] was 6.39 and the pKi [3] was 5.96.

Work on FMRF (D-Met in place of L-Met, C-terminal amide, also called the D-Met analog) [D-Met-FMRF amide] yielded a pKi [9] of 6.2, a pKi [10] of 6.6 and a pKi [11] of 6.4. It also gave a pKi [12] of 6.2.

B3: Met5-Arg6-Phe7-Enk-NH2 (peptide)
peptide: YGGFMRF-NH2
notes: also called Met-Enk-NH2; Met^5, Arg^6, Phe^7-NH2 enkephalinamide
With B3 the pKi [1] was 8.4 and the pKi [3] was 7.35.

B4: AF-2 (peptide)
peptide: H-KHQYLRF-NH2
notes: Printed as H-Lys-His-Gln-Tyr-Leu-Arg-Phe-NH2
B4 showed a pKi [1] of 7.96 and a pKi [3] of 7.02.

Work on APLEPVYPGDNATPEQMAQYAADLRRYINMLTRPRY (peptide, UniProt P01298 30-65, looked up) [hPP] yielded a pKi [1] of 5 and a pKi [3] of 5.

With GWTLNSAGYLLGPHAVGNHRSFSDKNGLTS (peptide, UniProt P22466 33-62, looked up, species assumed, Galanin) [galanin] the pKi [1] was 5 and the pKi [3] was 5.

YGGFMRF-OH [Met5-Arg6-Phe7-Enk-OH] gave a pKi [1] of 5 and a pKi [3] of 5.

With AGEGLSSPFWSLAAPQRF-NH2 (also called NPAF) [rat A-18-F-amide] the “EC50, extracellular acidification rate (microphysiometry), CHO cells with NPFF1 alone” value [19] was 150 nM, the pKi [1] was 9 and the pKi [9] was 7.5. It also gave a pKi [10] of 7.2, a pKi [11] of 8.9 and a pKi [3] of 7.5. For the same molecule, the pKi [12] was 8.2.

B5: [Y^9]A18Fa (peptide)
peptide: AGEGLSSPYWSLAAPQRF-NH2
notes: also called [Y^9]A18Famide; [tyr^9]A-18-F-amide
Molecule B5 has a pKi [1] of 8.5 and a pKi [3] of 7.56.

For DYMGWMDF (peptide, UniProt P06307 96-103, looked up, species assumed, ends and bridges not checked) [CCK8], the pKi [1] was 5 and the pKi [3] was 5.

B6: (D-Tyr^1-(NMe)Phe^3)NPFF (peptide)
peptide: [dY]L[NMeF]QPQRF-NH2
modifications: N-terminus assumed
SMILES: CC(C)C[C@H](NC(=O)[C@H](N)Cc1ccc(O)cc1)C(=O)N(C)[C@@H](Cc1ccccc1)C(=O)N[C@@H](CCC(N)=O)C(=O)N1CCC[C@H]1C(=O)N[C@@H](CCC(N)=O)C(=O)N[C@@H](CCCNC(=N)N)C(=O)N[C@@H](Cc1ccccc1)C(N)=O
notes: also called D-Tyr-NPFF; (1DMe)Y8Fa
In the case of B6, the pKi [1] is reported as 9.72, the pKi [9] is reported as 8.8 and the pKi [10] is reported as 8.1. It also gave a pKi [11] of 8.5, a pKi [3] of 8.55 and a pKi [12] of 8.7.

B7: AF-1 (peptide)
peptide: H-KNQFIRF-NH2
notes: Printed as H2N-Lys-Asn-Gln-Phe-Ile-Arg-Phe-NH2; also called FMRF-like peptide
B7 gave a pKi [1] of 7.56 and a pKi [3] of 6.63.
